# In patent publication US20190010203A1 (ADEPTHERA, published 2019):
# Non-standard residues stand in square brackets, D forms with d. No end group written: not given here. *: point of attachment. Palmitoyl = CCCCCCCCCCCCCCCC(=O)*; AEEEA = NCCOCCOCCOCC(=O)O; AEEA = NCCOCCOCC(=O)O
# B1: SEQ ID NO: 78 (peptide)
# peptide: [AEEEA]K(Palmitoyl)VQKLAHQIYQFTDKDKDNSAPVDPSSPHSY-NH2
# modifications: N-terminus assumed
# SMILES: CCCCCCCCCCCCCCCC(=O)NCCCC[C@H](NC(=O)COCCOCCOCCN)C(=O)N[C@H](C(=O)N[C@@H](CCC(N)=O)C(=O)N[C@@H](CCCCN)C(=O)N[C@@H](CC(C)C)C(=O)N[C@@H](C)C(=O)N[C@@H](Cc1c[nH]cn1)C(=O)N[C@@H](CCC(N)=O)C(=O)N[C@H](C(=O)N[C@@H](Cc1ccc(O)cc1)C(=O)N[C@@H](CCC(N)=O)C(=O)N[C@@H](Cc1ccccc1)C(=O)N[C@H](C(=O)N[C@@H](CC(=O)O)C(=O)N[C@@H](CCCCN)C(=O)N[C@@H](CC(=O)O)C(=O)N[C@@H](CCCCN)C(=O)N[C@@H](CC(=O)O)C(=O)N[C@@H](CC(N)=O)C(=O)N[C@@H](CO)C(=O)N[C@@H](C)C(=O)N1CCC[C@H]1C(=O)N[C@H](C(=O)N[C@@H](CC(=O)O)C(=O)N1CCC[C@H]1C(=O)N[C@@H](CO)C(=O)N[C@@H](CO)C(=O)N1CCC[C@H]1C(=O)N[C@@H](Cc1c[nH]cn1)C(=O)N[C@@H](CO)C(=O)N[C@@H](Cc1ccc(O)cc1)C(N)=O)C(C)C)[C@@H](C)O)[C@@H](C)CC)C(C)C
# Target: T1, CLR/RAMP2 receptor (UniProt Q16602 23-461; O60895 43-175, limits assumed)
# T1 sequence (Q16602 23-461 limits assumed, chain 1 of 2): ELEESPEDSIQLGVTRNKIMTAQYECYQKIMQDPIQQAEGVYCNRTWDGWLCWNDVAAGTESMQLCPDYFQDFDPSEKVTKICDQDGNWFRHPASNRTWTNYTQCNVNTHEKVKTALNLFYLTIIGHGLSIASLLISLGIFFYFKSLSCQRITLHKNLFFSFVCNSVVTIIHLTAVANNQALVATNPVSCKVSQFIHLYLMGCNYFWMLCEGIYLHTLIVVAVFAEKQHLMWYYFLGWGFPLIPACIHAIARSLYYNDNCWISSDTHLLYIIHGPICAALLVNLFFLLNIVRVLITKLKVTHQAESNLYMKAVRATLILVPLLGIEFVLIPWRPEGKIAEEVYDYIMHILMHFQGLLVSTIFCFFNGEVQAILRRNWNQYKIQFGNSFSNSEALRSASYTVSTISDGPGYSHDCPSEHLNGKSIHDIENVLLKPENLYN
# T1 sequence (O60895 43-175 limits assumed, chain 2 of 2): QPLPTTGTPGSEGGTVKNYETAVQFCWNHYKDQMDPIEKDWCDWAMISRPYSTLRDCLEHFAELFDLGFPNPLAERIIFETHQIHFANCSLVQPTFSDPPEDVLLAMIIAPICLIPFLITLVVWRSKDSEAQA
# Assay: cell-based or functional assay
Binder,"IC50 (nM), ADM-stimulated CLR/RAMP2 arrestin assay [nM]","Max Activity % of positive control, ADM-stimulated CLR/RAMP2 antagonist assay"
B1,34,107 % of positive control
[AEEA]K(Palmitoyl)VQKLAHQIYQFTDKDSAPVDPSSPHSY-NH2 [SEQ ID NO: 112],5.3,–
Palmitoyl-KVQKLAHQIYQFTDKDSAPVDPSSPHSY-NH2 [SEQ ID NO: 121],4.9,–
Ac-VTHRLAGLLSRFTDKDKDNVAPRSKISPQGY-NH2 [SEQ ID NO: 115],117,–
Ac-TVQKLAHRLWQLMGPDKDNVAPRSKISPQGY-NH2 [SEQ ID NO: 116],7.3,–
[AEEA]K(Palmitoyl)VQKLAHQIYSAPVDPSSPHSY-NH2 [SEQ ID NO: 114],146,–
Palmitoyl-KVQNLSHRLWQLMGPAGSAPVDPSSPHSY-NH2 [SEQ ID NO: 120],85,–
Palmitoyl-KVQKLAHQIYSAPVDPSSPHSY-NH2 [SEQ ID NO: 122],61,–
Palmitoyl-KVQKLAHQISAPVDPSSPHSY-NH2 [SEQ ID NO: 123],50,–
Palmitoyl-KVQKLAHQSAPVDPSSPHSY-NH2 [SEQ ID NO: 124],–,103 % of positive control
Palmitoyl-KVQKLAHQIYQFTDKDVAPRSKISPQGY-NH2 [SEQ ID NO: 119],0.6,–

# Target: T2, CLR/RAMP1 receptor (UniProt Q16602 23-461; O60894 27-148, limits assumed)
# T2 sequence (Q16602 23-461 limits assumed, chain 1 of 2): as the sequence (Q16602 23-461 limits assumed, chain 1 of 2) above
# T2 sequence (O60894 27-148 limits assumed, chain 2 of 2): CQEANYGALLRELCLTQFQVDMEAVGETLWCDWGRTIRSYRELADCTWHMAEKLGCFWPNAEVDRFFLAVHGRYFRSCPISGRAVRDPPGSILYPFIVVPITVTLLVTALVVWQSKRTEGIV
# Assay: cell-based or functional assay
Binder,"IC50 (nM), CGRP-stimulated CLR/RAMP1 cAMP assay [nM]","Max Activity % of positive control, CGRP-stimulated CLR/RAMP1 antagonist assay"
B1,4.8,104 % of positive control
[AEEA]K(Palmitoyl)VQKLAHQIYQFTDKDSAPVDPSSPHSY-NH2 [SEQ ID NO: 112],1.8,–
Palmitoyl-KVQKLAHQIYQFTDKDSAPVDPSSPHSY-NH2 [SEQ ID NO: 121],3.2,–
Ac-VTHRLAGLLSRFTDKDKDNVAPRSKISPQGY-NH2 [SEQ ID NO: 115],1880,–
Ac-TVQKLAHRLWQLMGPDKDNVAPRSKISPQGY-NH2 [SEQ ID NO: 116],152,–
[AEEA]K(Palmitoyl)VQKLAHQIYSAPVDPSSPHSY-NH2 [SEQ ID NO: 114],4.8,–
Palmitoyl-KVQNLSHRLWQLMGPAGSAPVDPSSPHSY-NH2 [SEQ ID NO: 120],5.8,–
Palmitoyl-KVQKLAHQIYSAPVDPSSPHSY-NH2 [SEQ ID NO: 122],7.3,–
Palmitoyl-KVQKLAHQISAPVDPSSPHSY-NH2 [SEQ ID NO: 123],4.7,–
Palmitoyl-KVQKLAHQSAPVDPSSPHSY-NH2 [SEQ ID NO: 124],–,95 % of positive control
Palmitoyl-KVQKLAHQIYQFTDKDVAPRSKISPQGY-NH2 [SEQ ID NO: 119],21,–

# Target: T3, CLR/RAMP3 receptor (UniProt Q16602 23-461; O60896 24-148, limits assumed)
# T3 sequence (Q16602 23-461 limits assumed, chain 1 of 2): as the sequence (Q16602 23-461 limits assumed, chain 1 of 2) above
# T3 sequence (O60896 24-148 limits assumed, chain 2 of 2): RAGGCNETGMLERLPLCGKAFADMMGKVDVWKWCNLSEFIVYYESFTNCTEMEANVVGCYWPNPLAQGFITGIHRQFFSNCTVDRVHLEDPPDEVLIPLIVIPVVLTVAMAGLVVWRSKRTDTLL
# Assay: cell-based or functional assay
Binder,"IC50 (nM), CLR/RAMP3 cAMP antagonist assay [nM]","Max Activity % of positive control, CLR/RAMP3 antagonist assay"
B1,0.8,101 % of positive control
[AEEA]K(Palmitoyl)VQKLAHQIYQFTDKDSAPVDPSSPHSY-NH2 [SEQ ID NO: 112],2.3,–
Palmitoyl-KVQKLAHQIYQFTDKDSAPVDPSSPHSY-NH2 [SEQ ID NO: 121],1.8,–
Ac-VTHRLAGLLSRFTDKDKDNVAPRSKISPQGY-NH2 [SEQ ID NO: 115],115,–
Ac-TVQKLAHRLWQLMGPDKDNVAPRSKISPQGY-NH2 [SEQ ID NO: 116],53,–
[AEEA]K(Palmitoyl)VQKLAHQIYSAPVDPSSPHSY-NH2 [SEQ ID NO: 114],8.4,–
Palmitoyl-KVQNLSHRLWQLMGPAGSAPVDPSSPHSY-NH2 [SEQ ID NO: 120],9.2,–
Palmitoyl-KVQKLAHQIYSAPVDPSSPHSY-NH2 [SEQ ID NO: 122],4.1,–
Palmitoyl-KVQKLAHQSAPVDPSSPHSY-NH2 [SEQ ID NO: 124],–,102 % of positive control
Palmitoyl-KVQKLAHQIYQFTDKDVAPRSKISPQGY-NH2 [SEQ ID NO: 119],1.5,–

# Target: T1, CLR/RAMP2 receptor
# Assay: cell-based or functional assay
# Remark: another data set of the same source
row,Binder,"EC50 (nM), CLR/RAMP2 arrestin assay [nM]"
1,Palmitoyl-KGCRFGTCTVQKLAHQIYQFTDKDSAPVDPSSPHSY-NH2 (ends and bridges not checked) [SEQ ID NO: 92],0.3
2,"KGCRFGTCTVQKLAHQIYQFTDKDKDNVAPRSKISPQGY (N-terminal miniPEG; palmitoyl on Lys 1 side chain, K(PAL); C-terminal amide) [SEQ ID NO: 69]",0.6
3,Palmitoyl-KGCRFGTCTVQKLAHQIYQFTDKDVAPRSKISPQGY-NH2 (ends and bridges not checked) [SEQ ID NO: 103],0.7
4,miniPEG-K(Palmitoyl)GCRFGTCTVQKLAHQIYQFTDKDSAPVDPSSPHSY-NH2 (ends and bridges not checked) [SEQ ID NO: 48],0.2

# Target: T2, CLR/RAMP1 receptor
# Assay: cell-based or functional assay
# Remark: another data set of the same source
row,Binder,"EC50 (nM), CLR/RAMP1 cAMP assay [nM]"
1,Palmitoyl-KGCRFGTCTVQKLAHQIYQFTDKDSAPVDPSSPHSY-NH2 (ends and bridges not checked) [SEQ ID NO: 92],0.4
2,Palmitoyl-KGCRFGTCTVQKLAHQIYQFTDKDVAPRSKISPQGY-NH2 (ends and bridges not checked) [SEQ ID NO: 103],4.5
3,miniPEG-K(Palmitoyl)GCRFGTCTVQKLAHQIYQFTDKDSAPVDPSSPHSY-NH2 (ends and bridges not checked) [SEQ ID NO: 48],0.3

# Target: T3, CLR/RAMP3 receptor
# Assay: cell-based or functional assay
# Remark: another data set of the same source
row,Binder,"EC50 (nM), CLR/RAMP3 cAMP assay [nM]"
1,Palmitoyl-KGCRFGTCTVQKLAHQIYQFTDKDSAPVDPSSPHSY-NH2 (ends and bridges not checked) [SEQ ID NO: 92],0.2
2,"KGCRFGTCTVQKLAHQIYQFTDKDKDNVAPRSKISPQGY (N-terminal miniPEG; palmitoyl on Lys 1 side chain, K(PAL); C-terminal amide) [SEQ ID NO: 69]",0.6
3,miniPEG-K(Palmitoyl)GCRFGTCTVQKLAHQIYQFTDKDVAPRSKISPQGY-NH2 (ends and bridges not checked) [SEQ ID NO: 101],0.5
4,Palmitoyl-KGCRFGTCTVQKLAHQIYQFTDKDVAPRSKISPQGY-NH2 (ends and bridges not checked) [SEQ ID NO: 103],0.3
5,miniPEG-K(Palmitoyl)GCRFGTCTVQKLAHQIYQFTDKDSAPVDPSSPHSY-NH2 (ends and bridges not checked) [SEQ ID NO: 48],0.07
